Measured values: US20240092930A1 (MABWELL SHANGHAI BIOSCIENCE, published 2024)

How the values were obtained:
[1] = biological target: T1, recombinant mouse Trop-2-his protein (Cat.: 50922-M08H, Beijing Yiqiao Shenzhou Science and Technology Co., … (mouse, UniProt Q8BGV3 25-270)); experiment: ELISA, coated mouse Trop-2-his, purified murine antibody
T1 construct: Bought protein; not shown: his tag
T1 sequence (looked up): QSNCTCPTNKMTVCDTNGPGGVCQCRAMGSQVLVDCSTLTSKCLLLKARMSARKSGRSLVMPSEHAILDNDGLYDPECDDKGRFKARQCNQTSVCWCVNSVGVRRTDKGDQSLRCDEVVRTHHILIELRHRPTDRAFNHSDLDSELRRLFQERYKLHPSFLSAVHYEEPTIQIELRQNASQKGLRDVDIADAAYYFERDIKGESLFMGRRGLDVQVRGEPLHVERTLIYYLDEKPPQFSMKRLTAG
Method: (§1) Washed with PBS 3 times, the plates were blocked with the added 5% BSA PBS at 37° C. for 60 min, and then washed 3 times with PBST. The 15 purified murine antibodies were diluted to 1 μg/ml with PBS. Controls as follows were set: (1) Positive Control (PC): Sacituzumab (WHO Drug Information (Vol. 31, No. 1, 2017), SEQ ID NO: 39 and SEQ ID NO: 40), a version having murine IgG constant region, […]; (2) Negative Control (NC): an antibody from an irrelevant hybridoma, 1 μg/ml; (3) blank control: PBS. After incubation at 37° C. for 60 min, the plates were washed 4 times with PBST. […] Afterwards, the plates were washed with PBST 4 times, and TMB substrate was added for color development at 37° C. for 10 min. Then 2M HCl was added to stop reaction; and absorbances at 450 nm and at 630 nm (as reference wavelength) were read, and A450 nm-630 nm values of the wells in the plates were recorded.

[2] = biological target: T1, recombinant mouse Trop-2-his protein …; experiment: ELISA, coated mouse Trop-2-his, purified murine antibody 1 µg/ml
Method: as §1

[3] = biological target: T1, recombinant mouse Trop-2-his protein …; experiment: ELISA, coated mouse Trop-2-his 1 µg/ml
Method: (§2) Washed with PBS 3 times, the plates were blocked with the added 5% BSA PBS at 37° C. for 60 min, and then washed 3 times with PBST. Different concentrations of h23-12 (serial dilutions of 14 concentrations obtained through 3-fold serially diluting a solution with an initial concentration of 10 μg/ml), h4-3 (serial dilutions of 12 concentrations obtained through 3-fold serially diluting a solution with an initial concentration of 3 μg/ml), and Sacituzumab (serial dilutions of 12 concentrations obtained through 3-fold serially diluting a solution with an initial concentration of 3 μg/ml) were added into the plates, with each concentration provided in a parallel well. The plates were incubated at 37° C. for 60 min, and then were washed 4 times with PBST. 1:5000 dilution of H1RP-anti-human Fc (Cat.: 109-035-098, Jackson ImmunoResearch) was added into the plates for incubation at 37° C. for 30 min. Afterwards, the plates were washed with PBST 4 times, and TMB substrate was added for color development at 37° C. for 10 min. Then 2M HCl was added to stop reaction; and absorbances at 450 nm and at 630 nm (as reference wavelength) were read, and A450 nm-630 nm values of the wells in the plates were recorded.

[4] = biological target: T2, recombinant human Trop-2-his protein (ACCESSION NO.: NP_002344.2, AA 1-274) (human, UniProt P09758 27-274); experiment: ELISA, coated human Trop-2-his 1 µg/ml
T2 construct: range 27-274; also called recombinant human Trop-2 protein; recombinant human Trop-2 extracellular domain; not shown: his tag
T2 sequence (looked up): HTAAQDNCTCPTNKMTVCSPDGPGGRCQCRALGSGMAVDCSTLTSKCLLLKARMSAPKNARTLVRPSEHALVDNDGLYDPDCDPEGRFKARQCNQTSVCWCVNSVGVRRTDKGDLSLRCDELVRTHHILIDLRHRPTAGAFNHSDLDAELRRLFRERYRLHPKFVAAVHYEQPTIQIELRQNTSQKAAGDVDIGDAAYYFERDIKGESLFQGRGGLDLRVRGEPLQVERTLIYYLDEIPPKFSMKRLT
Method: as §2

[5] = biological target: T3, recombinant cynomolgus Trop-2-his protein (ACCESSION NO.: UniProtKB-A0A2K5UE71, AA 1-272) (cynomolgus, UniProt A0A2K5UE71 1-272); experiment: ELISA, coated cynomolgus Trop-2-his 1 µg/ml
T3 construct: The printed range begins at residue 1; not shown: his tag
T3 sequence: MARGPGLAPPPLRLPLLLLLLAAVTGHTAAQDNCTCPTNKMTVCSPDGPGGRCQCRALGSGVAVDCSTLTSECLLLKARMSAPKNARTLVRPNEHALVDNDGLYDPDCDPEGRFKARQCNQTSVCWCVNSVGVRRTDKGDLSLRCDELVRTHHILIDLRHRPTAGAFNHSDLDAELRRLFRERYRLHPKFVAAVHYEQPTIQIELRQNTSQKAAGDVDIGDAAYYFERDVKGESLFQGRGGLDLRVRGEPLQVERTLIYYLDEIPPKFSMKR
Method: as §2

[6] = biological target: T2, recombinant human Trop-2-his protein …; experiment: BLI, antibody on AHC sensor, Trop-2-his 60 nM
Method: 5-6 days after cell transfection, culture supernatants were purified through ProA affinity chromatography column to obtain different humanized antibodies. Affinities of the obtained antibodies were determined by an assay including capturing Fc fragments of the antibodies with anti-human IgG Fc capture (AHC) biosensors using Octet QKe system instrument from Fortebio. For the assay, each of the humanized antibodies and control antibody Sacituzumab was diluted to 4 μg/ml in PBS, and was allowed to flow through the surface of an AHC biosensor (Cat.: 18-0015, PALL) for 120 s. Recombinant human Trop-2-his protein (ACCESSION NO.: NP_002344.2, AA 1-274) was used as a mobile phase, and its concentration was 60 nM. The binding time was 100 s and the dissociation time was 300 s. When the assay was finished, data from which the response values of blank control had been deducted were fitted to a 1:1 Langmuir binding model using software, and then kinetic constants for antigen-antibody binding were calculated.
Affinities of the antibodies obtained from the combinations of mutants of murine antibody 23-12, chimeric antibody ch4-3 and control antibody Sacituzumab to recombinant human Trop-2-his protein were determined by ForteBio (Table 8).

[7] = biological target: T2, recombinant human Trop-2-his protein …; experiment: BLI, antibody on AHC sensor, Trop-2-his 23, 30, 45, 60 nM
Method: Affinities of the antibodies were determined by an assay including capturing Fc fragments of the antibodies with anti-human IgG Fc capture (AHC) biosensors using Octet QKe system instrument from Fortebio.
For the assay, each of the antibodies (h23-12, h4-3, and control antibody Sacituzumab) was diluted to 4 μg/ml in PBS, and was allowed to flow through the surface of an AHC biosensor (Cat.: 18-0015, PALL) for 120 s. Recombinant human Trop-2-his protein (ACCESSION NO.: NP_002344.2, AA 1-274) was used as a mobile phase. The Trop-2-his protein was used in following concentrations which corresponded to different antibodies: in case of h23-12, the Trop-2 was used in concentrations of 23, 30, 45, and 75 nM; in case of h4-3, it was used in concentrations of 23, 30, 45, and 60 nM; and in case of Sacituzumab, it was used in concentrations of 23, 30, 45, and 75 nM. The binding time was 100 s and the dissociation time was 300 s. When the assay was finished, data from which the response values of blank control had been deducted were fitted to a 1:1 Langmuir binding model using software, and then kinetic constants for antigen-antibody binding were calculated.

[8] = biological target: T1, recombinant mouse Trop-2-his protein …; experiment: ELISA, plate coated with recombinant mouse Trop-2-his, HRP-goat anti-mouse IgG (Fc gamma), OD450/630
Method: as §1

B1: m11-4 (antibody, mouse IgG1, V domains shown)
VH: QVQLQQPGAELVRPGASVNLSCKASGYTFTSYWINWVKQRPGQGLEWIGNIYPSNSYTNYNQKFKDTATLTVDKSSSTAYMQLSSPTSEDSAVYFCSSYRSDGFAYWGQGTLVTVSA
VL: DILLTQSPAILSVSPGEKVSFSCRASQNIGTSIHWYQQRTNGSPRLLIEFASESISGIPSRFSGSGSGTDFTLTINSVESEDIADYYCQQSNSWPFTFGGGTKLEIK
notes: also called murine antibody 11-4; ml 1-4
[1]
  binding result: no binding (tested: 1 µg/ml)

B2: m4-3 (antibody, mouse IgG1, V domains shown)
VH: QVQLQQSGPELVKPGASVKMSCKASGFTFTDYVIGWVKQRTGQGLEWIGEIYLGSGTIYYTEKFKGKATLTADTSSNTAYMQLSSLTSEDSAVYFCARGSIFPFDYWGQGTTLTVSS
VL: QIVLTQSPAIMSASPGEKVTMTCSASSSVSYMYWYQQKPGSSPRLLIYDTSTLASGVPVRFSGSGSGTSYSLTISRMEAEDAATYYCQQWSSYPYTFGGGTKLEIK
notes: also called murine antibody 4-3
[1]
  binding result: no binding (tested: 1 µg/ml)

B3: m17-1 (antibody, mouse IgG1, V domains shown)
VH: EVKLVESGGVLVKPGGSLKLSCAASGFTFSDSAMSWVRQTPEKRLEWVASISRGDDTYYPDSVKGRITISRDFARNILYLQMTSLRSEDTAMYYCTRDRFGFAYWGQGTLVTVSA
VL: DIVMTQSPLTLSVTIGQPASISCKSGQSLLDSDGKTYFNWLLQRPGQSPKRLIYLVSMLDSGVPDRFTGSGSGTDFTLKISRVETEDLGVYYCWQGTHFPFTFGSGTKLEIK
notes: also called murine antibody 17-1
[2]
  binding result: binds

B4: h4-3-1 (antibody, human IgG1, kappa, V domains shown)
VH: EVQLVQSGPEVKKPGASVKVSCKASGFTFTDYVIGWVRQAPGQGLEWIGEIYLGSGTIYYTEKFKGRVTMTADTSTSTAYMELSSLRSEDTAVYYCARGSIFPFDYWGQGTLVTVSS
VL: DIQLTQSPSSLSASVGDRVTITCSASSSVSYMYWYQQKPGKAPKLLIYDTSTLASGVPSRFSGSGSGTDFTLTISSLQPEDFATYYCQQWSSYPYTFGQGTKLEIKR
notes: also called CDR grafted antibody 4-3
[3]
  binding result: no binding (tested: up to 3 µg/ml)
[4]
  EC50: 0.0469 nM
[5]
  EC50: 0.0461 nM
[6]
  Kd: 0.304 nM
[7]
  Kd: 0.545 nM
  koff: 0.000146 s⁻¹
  kon: 267000 M⁻¹ s⁻¹

B5: m3-11 (antibody, mouse IgG1, V domains shown)
VH: QVQLQQPGAELVKPGSSVKLSCKASGYTFTSYWMYWVKQRPGQGLEWIGEINPSNGRTNYNEKFKSKATLTVDKSSSTAYMQFSSLTSEDSAVYYCTREGHNYDGSLGAMDHWGQGTSVTVSS
VL: DVVVTQTPLSLPVSFGDQVSISCRSSQSLTNSYGNTFLSWYLHKPGQSPQLLLYGISNRFSGVPDRFSGSGSGTDFTLKINTIKPEDLGMYYCFQSTHQPYTFGGGTKLEIK
notes: also called murine antibody 3-11
[1]
  binding result: no binding (tested: 1 µg/ml)

B6: PC (antibody, V domains shown)
VH: QVQLQQSGSELKKPGASVKVSCKASGYTFTNYGMNWVKQAPGQGLKWMGWINTYTGEPTYTDDFKGRFAFSLDTSVSTAYLQISSLKADDTAVYFCARGGFGSSYWYFDVWGQGSLVTVSS
VL: DIQLTQSPSSLSASVGDRVSITCKASQDVSIAVAWYQQKPGKAPKLLIYSASYRYTGVPDRFSGSGSGTDFTLTISSLQPEDFAVYYCQQHYITPLTFGAGTKVEIK
notes: not the human IgG1 Sacituzumab m5; also called Positive Control (PC); Sacituzumab, a version having murine IgG constant region; not shown: murine IgG heavy-chain constant region and murine light-chain constant region of this version
[8]
  binding result: no binding (tested: 1 µg/ml (paragraph 111 prints '1 g/ml'))
